# Assay results reported in PMC2064084 (The Journal of Cell Biology, 2007).
# Where a chain is given by its changes, count along the chain named. In names and notes the source's numbering stands.
# T1: C448Y/E442Q Spastin (human, UniProt Q9UBP0 228-616, E442Q | C448Y)
# T1 sequence: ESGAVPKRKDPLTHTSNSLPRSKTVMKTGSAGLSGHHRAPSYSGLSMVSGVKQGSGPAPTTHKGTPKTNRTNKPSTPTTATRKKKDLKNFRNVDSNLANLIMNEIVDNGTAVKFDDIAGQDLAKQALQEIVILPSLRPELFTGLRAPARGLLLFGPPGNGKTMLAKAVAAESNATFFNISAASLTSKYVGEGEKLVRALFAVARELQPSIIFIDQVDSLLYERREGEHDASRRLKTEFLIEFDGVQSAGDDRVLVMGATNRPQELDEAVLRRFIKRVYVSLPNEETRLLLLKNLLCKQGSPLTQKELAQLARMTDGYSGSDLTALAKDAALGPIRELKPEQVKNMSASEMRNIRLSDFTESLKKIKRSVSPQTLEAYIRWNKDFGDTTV
# B1: E442Q Spastin (enzyme)
# chain: T1 sequence with Y221C
# B2: GST–tubulin tail (GST fused to the C-terminal 104 amino acids of murine α-tubulin), ending in Tyr (domain or fragment)
# chain: not shown
# B3: A457E/E442Q Spastin (enzyme)
# chain: T1 sequence with Y221C, A230E
# B4: R451G/E442Q Spastin (enzyme)
# chain: T1 sequence with Y221C, R224G
# Assays:
# AUC = target: the molecule itself; assay: AUC
# C448Y/E442Q Spastin = target: T1, C448Y/E442Q Spastin; assay: pull-down
# SEC = target: the molecule itself; assay: SEC
Binder,binding result (SEC),further results
B1,,stoichiometry N (AUC): 6
B2,,binding result (C448Y/E442Q Spastin): binds
B3,binds,
B4,binds,
